Substrate: Nc1ncnc2c1ncn2[C@@H]1O[C@H](COP(=O)(O)OP(=O)(O)OP(=O)(O)O)[C@@H](O)[C@H]1O
Assay: Michaelis–Menten saturation kinetics
Type: biochemical, Homo sapiens
Conditions: Mn2+ ATP-binding pocket

B1: Focal adhesion kinase (FAK) (Homo sapiens) (protein)
chain: ETDDYAEIIDEEDTYTMPSTRDYEIQRERIELGRCIGEGQFGDVHQGIYMSPENPALAVAIKTCKNCTSDSVREKFLQEALTMRQFDHPHIVKLIGVITENPVWIIMELCTLGELRSFLQVRKYSLDLASLILYAYQLSTALAYLESKRFVHRDIAARNVLVSSNDCVKLGDFGLSRYMEDSTYYKASKGKLPIKWMAPESINFRRFTSASDVWMFGVCMWEILMHGVKPFQGVKNNDVIGRIENGERLPMPPNCPPTLYSLMTKCWAYDPSRRPRFTELKAQLSTILEEEKAQQEERMRMESRRQ
Q: With B1 as the protein, how does the Km read?
A: 6.4 ± 1.2 µM

Source: publication PMC7955952
